For three proteins, K0.5 and kcat/Km results are on record in paper PMC5241874.

A word on the kcat/Km: it is the turnover number divided by the Michaelis constant.

Where a chain is given by its changes, count along the chain named. Numbers in names are those of the source.

Substrate in this series: O=C(O)CC(C(=O)O)C(O)C(=O)O
Nature of the series: purified protein. The following applies: no activators, 2 mM Mn2+, 3.2 mM NAD, 33 mM Tris-acetate pH 7.4, 25 °C, Hill 2.0, racemic DL-ICT varied. It is filed as biochemical, Homo sapiens.

B1: αγ heterodimer of human NAD-IDH (IDH3) (Homo sapiens) (protein)
chain 1: TGGVQTVTLIPGDGIGPEISAAVMKIFDAAKAPIQWEERNVTAIQGPGGKWMIPSEAKESMDKNKMGLKGPLKTPIAAGHPSMNLLLRKTFDLYANVRPCVSIEGYKTPYTDVNIVTIRENTEGEYSGIEHVIVDGVVQSIKLITEGASKRIAEFAFEYARNNHRSNVTAVHKANIMRMSDGLFLQKCREVAESCKDIKFNEMYLDTVCLNMVQDPSQFDVLVMPNLYGDILSDLCAGLIGGLGVTPSGNIGANGVAIFESVHGTAPDIAGKDMANPTALLLSAVMMLRHMGLFDHAARIEAACFATIKDGKSLTKDLGGNAKCSDFTEEICRRVKDLD
chain 2: FSEQTIPPSAKYGGRHTVTMIPGDGIGPELMLHVKSVFRHACVPVDFEEVHVSSNADEEDIRNAIMAIRRNRVALKGNIETNHNLPPSHKSRNNILRTSLDLYANVIHCKSLPGVVTRHKDIDILIVRENTEGEYSSLEHESVAGVVESLKIITKAKSLRIAEYAFKLAQESGRKKVTAVHKANIMKLGDGLFLQCCREVAARYPQITFENMIVDNTTMQLVSRPQQFDVMVMPNLYGNIVNNVCAGLVGGPGLVAGANYGHVYAVFETATRNTGKSIANKNIANPTATLLASCMMLDHLKLHSYATSIRKAVLASMDNENMHTPDIGGQGTTSEAIQDVIRHIRVINGRAVEA
notes: alpha and gamma co-expressed in E. coli BL21(DE3) from pQlinkN; gamma C-terminal TEV-His6, His6 cleaved by TEV; 80 kDa heterodimer (dimer of heterodimers at high concentration)
Take B1: the K0.5 was found to be 4.49 ± 0.15 mM and the catalytic efficiency (kcat/Km) stood at 2160 ± 30 M⁻¹ s⁻¹.

B2: αγ heterodimer of human NAD-IDH (IDH3) (Homo sapiens; P50213:K200A) (protein)
chain 1: B1 chain 1 with K173A
chain 2: B1 chain 2
notes: as for B1
For the protein B2, under “Hill 1.2”, the K0.5 worked out at 6.38 ± 1.27 mM and the kcat/Km amounted to 380 ± 30 M⁻¹ s⁻¹.

B3: αγ heterodimer of human NAD-IDH (IDH3) (Homo sapiens; P50213:N202A) (protein)
chain 1: B1 chain 1 with N175A
chain 2: B1 chain 2
notes: as for B1
Consider B3, for which, under “Hill 1.2”, the K0.5 is 5.80 ± 0.84 mM and the specificity constant (kcat/Km) amounted to 290 ± 10 M⁻¹ s⁻¹.
